{"source": "paper PMC9525906", "about": "(The Journal of Biological Chemistry, 2022)", "proteins": {"B1": {"name": "Cryptococcus neoformans AICAR transformylase/IMP cyclohydrolase (ATIC) (enzyme, UniProt J9VJP1 1-605, looked up)", "chain": "MSSEAPIALLSVYDKTGLLPFAKSLKELGFRLLGSGGTAKMIREAGMEIEDVSNITKAPEMLGGRVKTLHPAVHGGILSRDIPSDLADLATNKISPITLVVCNLYPFVLQTAKPDCTLAGAIEEIDIGGVTLLRAAAKNHGRVSIISSPSDYETIVAELRAKGEVSAETRRGLAIKAFEDTKSYDEAISDYFRKVYATPGVEEEMKAGAGVGYQRLGLRYGANPHQKPAQAFVEQGEMPIKVLSGSPGYINLLDALNSWALVKELAAGLDLPAAASFKHVSPAGAAVGLPLDERAAKVFGVEDLKELSPLACAYARARGADRMSSFGDFIALSHTVDTPTAKIISREVSDGVIAPGYEPEALEILSKKKGGKYCVLQMDPTYVPPEIETRQVYGISLQQKRNDCKIDESLFKNVVTANKDLPKSAVTDLVVATLALKYTQSNSVCYALNGTVIGLGAGQQSRIHCTRLAGDKADNWWLRHHPRVLELPFKKGTKRADKANAIDLFVTGQAFEAEGGERAQWESLFETVPEPLTKEEREKHMKELTGVACASDAFFPFPDNVHRAKRSGATYLAAPSGSIMDKECIKAADESNLVFCHTDLRLFHH"}}, "key": {"purified protein": {"substrate": "NC(=O)c1ncn([C@@H]2O[C@H](COP(=O)(O)O)[C@@H](O)[C@H]2O)c1NC=O", "assay": "purified protein", "format": "biochemical, Cryptococcus neoformans", "settings": "IMP cyclohydrolase activity, 100 mM Tris-Cl pH 7.5, 37 °C"}, "SEC-MALS": {"molecular_target": "the molecule itself", "assay": "SEC-MALS"}}, "data": [{"protein": "B1", "values": [{"measurement": "Km", "setting": "purified protein", "value": "30 ± 1", "unit": "µM"}, {"measurement": "Vmax", "setting": "purified protein", "value": 8.6, "unit": "µmol/min/mg"}, {"measurement": "kcat", "setting": "purified protein", "value": "7.7 ± 0.1", "unit": "s⁻¹"}, {"measurement": "stoichiometry N", "setting": "SEC-MALS", "value": 2}]}]}
